Assay results reported in patent US7125658B2, “Small protein that interacts with a ribonucleotide reductase subunit and uses thereof” (The Trustees of Columbia University in the City of New York, priority 1998, dated 2006).

Experiments:
GAD-RNR2 = target: T1, GAD-RNR2 (Saccharomyces cerevisiae, UniProt P09938); assay: yeast two-hybrid assay against GAD-RNR2; type: cell-based; design: key to HIS3 reporter / ADE2 reporter: + signifies growth on histidine-less and adenine-less media; +/− signifies constructs unable to grow on adenine-less medium but able to give rise to white colonies on YPD medium
T1 construct: expressed in transfected cells; host or cells: S. cerevisiae two-hybrid strain PJ69-4A
T1 sequence (P09938 1-399): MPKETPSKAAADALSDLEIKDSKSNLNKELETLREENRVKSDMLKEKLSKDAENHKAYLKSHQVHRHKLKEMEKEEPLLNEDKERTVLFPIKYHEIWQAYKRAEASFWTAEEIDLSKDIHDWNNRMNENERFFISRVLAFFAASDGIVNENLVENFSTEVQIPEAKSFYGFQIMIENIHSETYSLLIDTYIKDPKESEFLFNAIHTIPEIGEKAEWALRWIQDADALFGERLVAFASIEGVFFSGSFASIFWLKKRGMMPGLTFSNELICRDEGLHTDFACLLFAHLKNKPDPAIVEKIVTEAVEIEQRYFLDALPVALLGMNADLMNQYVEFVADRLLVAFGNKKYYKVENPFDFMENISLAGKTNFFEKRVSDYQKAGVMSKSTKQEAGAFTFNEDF
Excerpt: (§1) The strains and plasmids for two-hybrid analysis were PJ69-4A, pGBD-C2, pGAD-C2 (James et al., 1996) and pACTII (CLONTECH® Inc.). The primer pair pB-SML1 5′ (SEQ ID NO: 11) and pGBD-SML1 3′ (SEQ ID NO: 13) (Table 4) was used to amplify the SML1 ORF. After digestion with BamHI and PstI, this PCR product was cloned into the BamHI-PstI sites of pGBD-C2 to construct plasmid pWJ728. Similarly, plasmid pWJ684 contains a BamHI fragment from the PCR product of the SML1 ORF generated using the primer pair pB-SML1 5′ and pB-SML1 3′ (SEQ ID NO: 12) (Table 4) and inserted at the BamHI site of pACTII. PCR fragments containing the RNR1 or the RNR2 ORF were generated by primer pairs RNR1-ORF 5′ (SEQ ID NO: 14) and RNR1 3′ (SEQ ID NO: 15) or RNR2-ORF 5′ (SEQ ID NO: 17) and RNR2 3′ (SEQ ID NO: 16) (Table 4). These fragments were cloned into the BamHI-PstI site of pGBD-C2 and pGAD-C2 to construct pWJ731 and pWJ745 or pWJ729 and pWJ746 respectively.
(§2) The GAL1-HIS3 reporter was assayed on SC-HIS-LEU-TRP medium plus 1-2 mM 3-aminotriazole. The GAL2-ADE2 reporter was assayed on SC-ADE-LEU-TRP medium.

GAD-SML1 = target: T2, GAD-SML1 (Saccharomyces cerevisiae, UniProt Q04964); assay: yeast two-hybrid assay against GAD-SML1; type: cell-based; design: key to HIS3 reporter / ADE2 reporter: + signifies growth on histidine-less and adenine-less media; +/− signifies constructs unable to grow on adenine-less medium but able to give rise to white colonies on YPD medium
T2 construct: expressed in transfected cells; host or cells: S. cerevisiae two-hybrid strain PJ69-4A
T2 sequence (Q04964 1-104): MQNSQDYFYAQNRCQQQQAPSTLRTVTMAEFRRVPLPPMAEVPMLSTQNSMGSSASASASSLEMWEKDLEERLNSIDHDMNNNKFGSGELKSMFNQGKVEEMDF
Excerpt: as §1, §2

GAD = target: T3, GAD (Saccharomyces cerevisiae, UniProt P04386); assay: yeast two-hybrid assay against GAD alone; type: cell-based
T3 construct: expressed in transfected cells; host or cells: S. cerevisiae two-hybrid strain PJ69-4A
T3 sequence (P04386 768-881 limits assumed): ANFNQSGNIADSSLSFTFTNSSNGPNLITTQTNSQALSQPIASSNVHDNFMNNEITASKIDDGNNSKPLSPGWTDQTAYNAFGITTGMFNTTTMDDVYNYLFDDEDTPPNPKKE
Excerpt: as §1, §2

[1] = target: GAD-Sml1 two-hybrid fusion (plasmid pWJ684, pACTII) (Saccharomyces cerevisiae (yeast)) (UniProt Q04964); assay: cell-based or functional assay
GAD-RNR1 = target: T4, GAD-RNR1 (Saccharomyces cerevisiae, UniProt P21524); assay: yeast two-hybrid assay against GAD-RNR1; type: cell-based; design: key to HIS3 reporter / ADE2 reporter: + signifies growth on histidine-less and adenine-less media; +/− signifies constructs unable to grow on adenine-less medium but able to give rise to white colonies on YPD medium
T4 construct: expressed in transfected cells; host or cells: S. cerevisiae two-hybrid strain PJ69-4A
T4 sequence (P21524 1-888): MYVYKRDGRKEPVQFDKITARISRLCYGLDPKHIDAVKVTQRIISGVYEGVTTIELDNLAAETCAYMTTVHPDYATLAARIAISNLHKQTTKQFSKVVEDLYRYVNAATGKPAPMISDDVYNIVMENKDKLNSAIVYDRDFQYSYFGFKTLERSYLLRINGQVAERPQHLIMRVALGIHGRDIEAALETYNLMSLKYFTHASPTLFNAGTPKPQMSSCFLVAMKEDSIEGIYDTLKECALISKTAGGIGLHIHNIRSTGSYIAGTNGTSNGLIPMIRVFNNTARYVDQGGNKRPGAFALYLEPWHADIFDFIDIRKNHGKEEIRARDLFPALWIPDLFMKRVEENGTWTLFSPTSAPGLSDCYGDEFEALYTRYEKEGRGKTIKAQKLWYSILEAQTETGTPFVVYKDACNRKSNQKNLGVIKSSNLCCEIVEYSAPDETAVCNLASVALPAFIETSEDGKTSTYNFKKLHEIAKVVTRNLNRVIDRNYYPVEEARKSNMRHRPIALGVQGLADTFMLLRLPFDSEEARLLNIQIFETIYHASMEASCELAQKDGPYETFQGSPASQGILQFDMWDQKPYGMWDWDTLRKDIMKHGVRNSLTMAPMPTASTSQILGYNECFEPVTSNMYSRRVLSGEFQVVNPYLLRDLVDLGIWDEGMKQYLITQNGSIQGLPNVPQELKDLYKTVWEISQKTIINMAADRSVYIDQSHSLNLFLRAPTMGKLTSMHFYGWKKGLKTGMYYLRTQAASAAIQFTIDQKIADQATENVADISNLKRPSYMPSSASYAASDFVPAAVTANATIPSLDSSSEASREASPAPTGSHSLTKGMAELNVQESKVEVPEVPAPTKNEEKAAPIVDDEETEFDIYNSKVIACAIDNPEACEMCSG
Excerpt: as §1, §2

[2] = SC-HIS-LEU-TRP plus 3-aminotriazole

Molecule: RNR2: GBD (Gal4 DNA binding domain) fusion of the RNR2 ORF in pGBD-C2, two-hybrid construct (GAFTFNEDF)
- LacZ activity (GAD-RNR2): 2.3 ± 0.4 Miller Units
- ADE2 reporter (GAD-RNR2; SC-ADE-LEU-TRP): +/−
- HIS3 reporter (GAD-RNR2; [2]): +
- LacZ activity (GAD-SML1): 0.9 ± 0.4 Miller Units
- LacZ activity (GAD): 1.4 ± 0.1 Miller Units

Molecule: GBD vector (Gal4 DNA binding domain alone, empty vector control) (from UniProt P04386 1-147)
- two-hybrid LacZ activity [1]: 0.4 Miller Units

B1: RNR1: GBD (Gal4 DNA binding domain) fusion of the RNR1 ORF in pGBD-C2, two-hybrid construct (protein)
chain: MYVYKRDGRKEPVQFDKITARISRLCYGLDPKHIDAVKVTQRIISGVYEGVTTIELDNLAAETCAYMTTVHPDYATLAARIAISNLHKQTTKQFSKVVEDLYRYVNAATGKPAPMISDDVYNIVMENKDKLNSAIVYDRDFQYSYFGFKTLERSYLLRINGQVAERPQHLIMRVALGIHGRDIEAALETYNLMSLKYFTHASPTLFNAGTPKPQMSSCFLVAMKEDSIEGIYDTLKECALISKTAGGIGLHIHNIRSTGSYIAGTNGTSNGLIPMIRVFNNTARYVDQGGNKRPGAFALYLEPWHADIFDFIDIRKNHGKEEIRARDLFPALWIPDLFMKRVEENGTWTLFSPTSAPGLSDCYGDEFEALYTRYEKEGRGKTIKAQKLWYSILEAQTETGTPFVVYKDACNRKSNQKNLGVIKSSNLCCEIVEYSAPDETAVCNLASVALPAFIETSEDGKTSTYNFKKLHEIAKVVTRNLNRVIDRNYYPVEEARKSNMRHRPIALGVQGLADTFMLLRLPFDSEEARLLNIQIFETIYHASMEASCELAQKDGPYETFQGSPASQGILQFDMWDQKPYGMWDWDTLRKDIMKHGVRNSLTMAPMPTASTSQILGYNECFEPVTSNMYSRRVLSGEFQVVNPYLLRDLVDLGIWDEGMKQYLITQNGSIQGLPNVPQELKDLYKTVWEISQKTIINMAADRSVYIDQSHSLNLFLRAPTMGKLTSMHFYGWKKGLKTGMYYLRTQAASAAIQFTIDQKIADQATENVADISNLKRPSYMPSSASYAASDFVPAAVTANATIPSLDSSSEASREASPAPTGSHSLTKGMAELNVQESKVEVPEVPAPTKNEEKAAPIVDDEETEFDIYNSKVIACAIDNPEACEMCSG
- LacZ activity (GAD-SML1): 85 ± 1 Miller Units
- ADE2 reporter (GAD-SML1; SC-ADE-LEU-TRP): +
- HIS3 reporter (GAD-SML1; [2]): +
- LacZ activity (GAD-RNR1): 2.9 ± 0.5 Miller Units
- ADE2 reporter (GAD-RNR1; SC-ADE-LEU-TRP): +/−
- HIS3 reporter (GAD-RNR1; [2]): +
- LacZ activity (GAD): 0.8 ± 0.2 Miller Units
